In the supplement of paper PMC10567573:

B1: CDC25B (parent)
chain: ELKTFRLKTRSWAGERSRRELCSR
B2: CDS2 (parent)
chain: IHSIALSTFASLIGPFGGFFASGF

Variants of: B1
Assay: protein stability index of a GFP-peptide fusion (GPS, HEK-293T) (PSI 1-6); higher = more stable
Details: c terminus: a fixed tail appended
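Also: lentivirally expressed fusions sorted by FACS into six bins by GFP to DsRed ratio, PSI derived from sequencing read proportions per bin multiplied by bin number.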

Protein stability index, by site and new letter:
R24: V 2.7, T 2.73, W 2.58, Y 2.33

Variants of: B2
Assay: as above
Details: c terminus: a fixed tail appended

Protein stability index: each site, then its substitutions
S7: P 2.88, M 3.09, Y 2.65, F 3.48, G 3.09, W 3.82, H 3.45, T 2.71, A 2.22, R 3.4, Q 2.64, C 1.83, I 2.94
F24: M 2.8, V 3.32, C 4.83, N 3.11, Q 2.45, L 3.68, P 3.79, H 3.27, D 3.08, A 2.18, W 3.66, G 4.4
A21: K 2.22, C 3.33, Y 3.42, E 2.24, F 2.83, M 2.69, P 2.4, H 4.77, R 2.9, Q 3.25, D 4.2, S 2.54, L 2.75, I 3, N 2.8
G23: E 4.01, H 2.2, F 2.67, L 1.42, P 2.73, Q 2.79, S 1.46, V 2.14, K 2.05, I 1.59, C 2.54, D 2.37
L12: T 1.49, H 3.22, R 1.6, A 2.82, N 2.95, Y 2.37, I 2.76, F 4.01, Q 4.09, D 3.44, E 2.51, K 3.15
A10: N 1.6, G 3.32, E 3.6, W 3.06, D 3.54, M 3.11, H 2.85, P 2.39, F 3.04, V 3.29, C 2.97, T 4.58
A5: N 4.35, S 3.12, F 3.17, E 3.98, V 1.84, G 2.93, I 3.04, K 3.47, T 2.36, P 2.54, H 2.81, R 3.68, W 2.77, D 2.51, Q 3.47, M 2.14, L 2.15, Y 2.88
G14: L 3.66, A 3.37, Q 2.15, K 3.34, Y 2.64, R 2.97, T 2.79, N 1.69, W 1.74, E 2.76, C 2.05, I 2.82, D 3.05, V 2.64, M 2.48
G18: E 2.89, K 2.86, Q 3.3, V 3.83, A 2.37, R 3.42, Y 3.62, P 2.83, W 2.32, I 3.04, D 4.39, F 3.59, H 2.38, S 2.36, L 2.48
I1: F 2.15, A 3.5, D 1.79, L 2.63, Y 3.05, S 2.57, H 2.21, C 3.03, T 3.44, Q 1.48, K 2.65, E 4.34, N 2.63, P 3.96, V 2.61, G 2.84
I13: F 3.52, K 2.49, W 3.97, S 2.8, Q 2.45, N 2, E 2.6, Y 2.89, H 3.22, L 2.64, A 2.25
F20: N 2.68, Y 1.92, P 3.39, L 2.98, A 1.97, S 2.52, C 4.04, K 2.68, R 2.86, M 2.88, I 2.13
P15: H 2.17, D 3.92, R 1.88, E 3.88, W 2.2, I 4.59, T 3.98, A 2.41, Q 3.43, C 2.62, M 3.79, L 4.3, Y 1.75, N 2.82, F 2.46, K 1.77
S11: R 2.81, L 2.8, I 3.73, Y 4.15, M 3.71, D 2.9, H 2.75, T 2.57, E 3.35, A 2.88, V 1.89, W 5.33, C 2.7, G 2.9, F 3.22, N 2.33
H2: K 3.27, T 3.98, I 2.41, A 2.61, G 3.52, E 1.8, Q 2.43, C 4.54, D 2.57, M 2.79, S 2.03, Y 3.65
L6: I 3.38, G 2.54, N 2.62, Y 3.33, C 2.06, A 2.63, V 3.03, M 4.1, R 1.67, D 3.13, T 1.39, Q 2.28, K 3.48, F 2.34
F16: R 2.29, A 3.6, V 2.96, Y 2.37, K 3.11, H 2.84, G 4.52, Q 3.71, L 1.91, M 3.82, P 2.02, D 3.08, T 2.92, W 2.49
T8: A 3.48, W 2.58, P 3.52, Q 1.86, I 1.82, D 2.14, N 3.16, M 2.49, H 3.82, E 2.67, R 3.47, V 2.86
F9: N 2.11, Y 1.62, S 3.33, E 1.92, I 3.79, Q 3.22, L 3.88, D 2.15, G 2.44, H 1.51, R 3.28, W 2.81
I4: H 2.91, P 3.8, M 2.86, E 2.14, A 2.44, T 3.82, R 3.04, Y 2.14, S 3.51
G17: F 2.74, D 3.88, E 3.13, A 2.41, Y 2.06, I 2.98, T 4.3, H 3.56, C 3.58, V 2.5, P 2.78, K 2.22, L 3.48, S 4.37, M 2.12
S3: I 3.44, V 3.02, Q 2.4, G 2.49, E 3.44, K 3.55, N 4.17, Y 2.06, F 3.44, C 4.47, T 2.8, D 3.74, P 2.89, L 4.15
S22: N 2.57, F 3.51, V 2.54, P 3.67, H 2.03, E 2.95, T 2.96, D 2.53, L 2.7, K 1.71, R 3.24, Q 2.57, M 3.08, C 2.86, G 3.59
F19: K 3.44, R 2.72, D 3.49, S 2.78, Y 4.14, W 3.48, H 2.47, G 3.81, V 2.86, Q 3.63, P 2.01, I 2.97, N 3.42, A 2.87, L 3.19, C 2.63, E 3.01, T 3.17, M 4.02
